Measurements: publication PMC9293632, “PKGIα is activated by metal-dependent oxidation in vitro but not in intact cells” (The Journal of Biological Chemistry, 2022)

Target: the molecule itself
Assay: cross-linking; disulfide cross-link at Cys43 of freshly purified kinase; diluted in KPE buffer (10 mM potassium phosphate, 1 mM EDTA, pH 7.0) with 0, 5 or 15 mM DTT, 1 h on ice; maleimide in SDS sample buffer, nonreducing 9% SDS-PAGE without heating, anti-Flag Western blot

B1: Flag-tagged WT PKGIα (type I cGMP-dependent protein kinase, alpha isoform) (enzyme, UniProt Q13976 1-671, looked up)
chain: MSELEEDFAKILMLKEERIKELEKRLSEKEEEIQELKRKLHKCQSVLPVPSTHIGPRTTRAQGISAEPQTYRSFHDLRQAFRKFTKSERSKDLIKEAILDNDFMKNLELSQIQEIVDCMYPVEYGKDSCIIKEGDVGSLVYVMEDGKVEVTKEGVKLCTMGPGKVFGELAILYNCTRTATVKTLVNVKLWAIDRQCFQTIMMRTGLIKHTEYMEFLKSVPTFQSLPEEILSKLADVLEETHYENGEYIIRQGARGDTFFIISKGTVNVTREDSPSEDPVFLRTLGKGDWFGEKALQGEDVRTANVIAAEAVTCLVIDRDSFKHLIGGLDDVSNKAYEDAEAKAKYEAEAAFFANLKLSDFNIIDTLGVGGFGRVELVQLKSEESKTFAMKILKKRHIVDTRQQEHIRSEKQIMQGAHSDFIVRLYRTFKDSKYLYMLMEACLGGELWTILRDRGSFEDSTTRFYTACVVEAFAYLHSKGIIYRDLKPENLILDHRGYAKLVDFGFAKKIGFGKKTWTFCGTPEYVAPEIILNKGHDISADYWSLGILMYELLTGSPPFSGPDPMKTYNIILRGIDMIEFPKKIAKNAANLIKKLCRDNPSERLGNLKNGVKDIQKHKWFEGFNWEGLRKGTLTPPIIPSVASPTDTSNFDSFPEDNDEPPPDDNSGWDIDF
notes: PKGIα, the alpha isoform of type I cGMP-dependent protein kinase; On oxidation the two chains of the homodimer are joined by a disulfide between their Cys43 residues; source: HEK293T, transiently transfected, purified (anti-Flag beads, eluted in PBS with Flag peptide)
B1 was tested, and the “stoichiometry N” value was 2.
